Data taken from patent US20150276760A1 (INSERM INSTITUT NATIONAL DE LA SANTE ET DE LA RECHERCHE …, published 2015).

Experiments:
Assay in all cases: Flag/HA immunopurification of MAML1-F/H from SupT1 nuclear extracts, DMSO or GSI (500 nM, 8 hours), western blot (FIG. 2D)
AF4p12 = molecular target: T1, AF4p12 (human, UniProt O94915 2-3013)
T1 construct: also called FRYL

BRG1 = molecular target: T2, BRG1 (human, UniProt P51532 1-1647)
T2 construct: also called endogenous BRG1; PBAF subunit BRG1

PB1 = molecular target: T3, PB1 (human, UniProt Q86U86 1-1689, limits assumed)
T3 construct: also called PBAF subunit PB1

LSD1 = LSD1 (human, UniProt O60341 1-852)
PHF8 = molecular target: T4, PHF8 (human, UniProt Q9UPP1 1-1060, limits assumed)
T4 construct: also called endogenous PHF8; histone demethylase PHF8

Measured: binding result

T3 sequence (Q86U86 whole entry): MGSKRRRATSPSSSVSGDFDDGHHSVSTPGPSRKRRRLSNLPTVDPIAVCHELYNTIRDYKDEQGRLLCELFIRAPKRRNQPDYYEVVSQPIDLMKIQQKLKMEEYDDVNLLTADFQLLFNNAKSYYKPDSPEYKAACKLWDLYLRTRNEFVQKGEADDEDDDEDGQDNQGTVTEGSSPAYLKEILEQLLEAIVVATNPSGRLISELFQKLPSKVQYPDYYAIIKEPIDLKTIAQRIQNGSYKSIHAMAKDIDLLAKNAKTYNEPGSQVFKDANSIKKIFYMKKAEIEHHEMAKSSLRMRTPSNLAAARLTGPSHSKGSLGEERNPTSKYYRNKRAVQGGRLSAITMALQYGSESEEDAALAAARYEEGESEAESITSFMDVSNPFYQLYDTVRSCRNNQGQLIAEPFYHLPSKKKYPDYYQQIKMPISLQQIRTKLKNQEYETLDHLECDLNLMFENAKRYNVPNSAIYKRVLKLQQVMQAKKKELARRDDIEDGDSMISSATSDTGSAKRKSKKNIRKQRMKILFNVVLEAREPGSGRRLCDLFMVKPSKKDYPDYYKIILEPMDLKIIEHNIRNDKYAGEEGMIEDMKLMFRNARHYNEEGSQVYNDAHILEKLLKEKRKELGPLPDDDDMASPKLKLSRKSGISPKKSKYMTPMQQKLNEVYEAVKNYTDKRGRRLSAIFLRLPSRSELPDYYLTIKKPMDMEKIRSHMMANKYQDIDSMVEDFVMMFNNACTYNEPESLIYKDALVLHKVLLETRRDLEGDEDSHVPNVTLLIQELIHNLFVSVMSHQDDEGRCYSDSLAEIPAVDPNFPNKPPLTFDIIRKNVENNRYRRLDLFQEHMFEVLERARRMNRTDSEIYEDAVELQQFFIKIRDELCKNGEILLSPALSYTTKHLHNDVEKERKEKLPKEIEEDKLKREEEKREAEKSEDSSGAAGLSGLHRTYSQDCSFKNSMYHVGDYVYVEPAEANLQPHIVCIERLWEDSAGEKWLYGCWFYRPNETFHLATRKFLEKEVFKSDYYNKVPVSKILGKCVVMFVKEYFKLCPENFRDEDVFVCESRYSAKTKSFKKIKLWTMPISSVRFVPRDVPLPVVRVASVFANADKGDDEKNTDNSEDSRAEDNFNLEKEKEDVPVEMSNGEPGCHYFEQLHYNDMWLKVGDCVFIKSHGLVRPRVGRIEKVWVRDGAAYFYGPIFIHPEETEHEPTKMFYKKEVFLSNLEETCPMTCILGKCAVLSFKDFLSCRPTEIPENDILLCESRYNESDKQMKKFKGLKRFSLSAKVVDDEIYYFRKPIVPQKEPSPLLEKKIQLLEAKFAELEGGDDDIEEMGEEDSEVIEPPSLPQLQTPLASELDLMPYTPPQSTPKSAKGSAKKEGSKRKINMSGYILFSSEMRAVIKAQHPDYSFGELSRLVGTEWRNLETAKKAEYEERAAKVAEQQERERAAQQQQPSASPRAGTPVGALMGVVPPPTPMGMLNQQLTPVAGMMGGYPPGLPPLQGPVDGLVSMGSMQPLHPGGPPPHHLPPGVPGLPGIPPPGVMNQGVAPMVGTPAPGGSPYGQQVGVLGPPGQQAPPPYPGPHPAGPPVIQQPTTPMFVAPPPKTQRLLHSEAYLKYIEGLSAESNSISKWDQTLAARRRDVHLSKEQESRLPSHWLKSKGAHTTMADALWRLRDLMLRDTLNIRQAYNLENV
T1 sequence (O94915 2-3013 limits assumed): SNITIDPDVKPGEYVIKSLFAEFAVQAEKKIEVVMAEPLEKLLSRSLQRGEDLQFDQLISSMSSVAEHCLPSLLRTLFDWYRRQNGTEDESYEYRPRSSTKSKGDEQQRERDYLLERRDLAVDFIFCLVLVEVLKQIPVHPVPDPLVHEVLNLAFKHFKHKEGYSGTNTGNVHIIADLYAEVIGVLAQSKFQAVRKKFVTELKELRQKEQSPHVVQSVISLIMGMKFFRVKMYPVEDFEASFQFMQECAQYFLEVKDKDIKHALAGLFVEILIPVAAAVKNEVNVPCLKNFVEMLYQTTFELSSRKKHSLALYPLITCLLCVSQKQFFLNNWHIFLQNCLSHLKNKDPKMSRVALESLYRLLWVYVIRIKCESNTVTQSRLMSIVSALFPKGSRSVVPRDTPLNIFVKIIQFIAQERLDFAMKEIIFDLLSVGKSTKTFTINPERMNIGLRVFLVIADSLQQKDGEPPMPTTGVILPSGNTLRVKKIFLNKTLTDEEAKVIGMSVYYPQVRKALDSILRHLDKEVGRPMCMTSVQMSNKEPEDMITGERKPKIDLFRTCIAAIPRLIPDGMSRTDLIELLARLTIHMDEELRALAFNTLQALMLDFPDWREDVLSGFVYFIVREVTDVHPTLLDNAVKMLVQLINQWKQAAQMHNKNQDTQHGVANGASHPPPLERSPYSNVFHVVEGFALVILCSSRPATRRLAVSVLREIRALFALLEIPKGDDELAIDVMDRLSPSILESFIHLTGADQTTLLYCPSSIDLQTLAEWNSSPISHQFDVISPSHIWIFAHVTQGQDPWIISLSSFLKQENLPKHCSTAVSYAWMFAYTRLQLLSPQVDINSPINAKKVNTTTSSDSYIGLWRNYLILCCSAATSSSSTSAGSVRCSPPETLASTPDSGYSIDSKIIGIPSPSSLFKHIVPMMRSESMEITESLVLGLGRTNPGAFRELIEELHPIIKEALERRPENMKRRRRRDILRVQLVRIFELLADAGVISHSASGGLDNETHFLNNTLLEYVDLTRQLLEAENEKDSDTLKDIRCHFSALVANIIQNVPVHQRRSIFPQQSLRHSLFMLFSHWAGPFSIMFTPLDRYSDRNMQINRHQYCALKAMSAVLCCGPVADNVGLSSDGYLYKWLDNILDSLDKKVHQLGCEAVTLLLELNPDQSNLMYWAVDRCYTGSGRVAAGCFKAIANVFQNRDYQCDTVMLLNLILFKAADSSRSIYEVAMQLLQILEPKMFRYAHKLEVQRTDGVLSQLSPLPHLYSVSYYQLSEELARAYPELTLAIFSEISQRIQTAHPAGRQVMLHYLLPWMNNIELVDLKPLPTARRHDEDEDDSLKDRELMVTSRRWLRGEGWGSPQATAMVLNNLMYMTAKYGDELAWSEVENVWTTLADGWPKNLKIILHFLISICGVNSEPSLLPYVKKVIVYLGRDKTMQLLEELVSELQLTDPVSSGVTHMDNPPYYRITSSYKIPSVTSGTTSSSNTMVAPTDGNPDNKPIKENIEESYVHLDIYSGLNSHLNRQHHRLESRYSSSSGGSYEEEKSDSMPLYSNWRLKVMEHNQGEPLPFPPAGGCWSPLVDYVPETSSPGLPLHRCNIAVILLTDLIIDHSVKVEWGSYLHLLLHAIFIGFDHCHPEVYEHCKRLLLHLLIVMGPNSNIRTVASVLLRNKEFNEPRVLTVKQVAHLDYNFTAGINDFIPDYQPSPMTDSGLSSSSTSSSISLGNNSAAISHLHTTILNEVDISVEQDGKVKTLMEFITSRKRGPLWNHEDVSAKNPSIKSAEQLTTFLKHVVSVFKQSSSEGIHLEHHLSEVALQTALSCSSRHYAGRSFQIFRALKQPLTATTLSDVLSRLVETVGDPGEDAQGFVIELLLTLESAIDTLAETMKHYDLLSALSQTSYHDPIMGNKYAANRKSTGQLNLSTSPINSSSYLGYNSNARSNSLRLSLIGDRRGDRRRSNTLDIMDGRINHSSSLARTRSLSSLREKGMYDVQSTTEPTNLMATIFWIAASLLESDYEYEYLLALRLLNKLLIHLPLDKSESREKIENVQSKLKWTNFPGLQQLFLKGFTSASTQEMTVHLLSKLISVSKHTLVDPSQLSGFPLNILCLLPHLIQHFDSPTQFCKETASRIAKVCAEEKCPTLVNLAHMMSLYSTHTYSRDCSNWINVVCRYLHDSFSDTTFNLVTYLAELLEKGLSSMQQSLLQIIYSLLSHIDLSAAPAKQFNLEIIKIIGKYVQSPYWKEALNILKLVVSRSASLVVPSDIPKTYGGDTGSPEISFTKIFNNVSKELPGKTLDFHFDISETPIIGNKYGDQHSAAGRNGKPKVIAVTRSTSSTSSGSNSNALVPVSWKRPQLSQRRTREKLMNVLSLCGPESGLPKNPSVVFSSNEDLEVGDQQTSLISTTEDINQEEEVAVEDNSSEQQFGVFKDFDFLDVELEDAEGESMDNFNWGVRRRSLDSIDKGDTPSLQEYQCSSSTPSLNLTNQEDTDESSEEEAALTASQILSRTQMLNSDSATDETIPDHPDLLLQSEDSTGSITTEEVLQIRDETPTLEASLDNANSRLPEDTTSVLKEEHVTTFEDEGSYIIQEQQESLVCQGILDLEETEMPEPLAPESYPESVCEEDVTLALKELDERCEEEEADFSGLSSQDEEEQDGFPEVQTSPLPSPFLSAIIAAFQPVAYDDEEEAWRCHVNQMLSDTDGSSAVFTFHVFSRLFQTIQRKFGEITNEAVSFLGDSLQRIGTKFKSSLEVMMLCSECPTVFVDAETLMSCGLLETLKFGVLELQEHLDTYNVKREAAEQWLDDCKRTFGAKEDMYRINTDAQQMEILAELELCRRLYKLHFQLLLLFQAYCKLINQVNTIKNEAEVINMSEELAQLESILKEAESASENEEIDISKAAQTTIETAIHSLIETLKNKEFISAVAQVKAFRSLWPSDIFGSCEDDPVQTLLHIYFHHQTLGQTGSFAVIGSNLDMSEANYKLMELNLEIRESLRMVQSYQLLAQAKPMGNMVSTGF

B1: Flag and HA-tagged MAML1 (MAML1-F/H) (other, human, UniProt Q92585 1-1016, looked up)
chain: MVLPTCPMAEFALPRHSAVMERLRRRIELCRRHHSTCEARYEAVSPERLELERQHTFALHQRCIQAKAKRAGKHRQPPAATAPAPAAPAPRLDAADGPEHGRPATHLHDTVKRNLDSATSPQNGDQQNGYGDLFPGHKKTRREAPLGVAISSNGLPPASPLGQSDKPSGADALQSSGKHSLGLDSLNKKRLADSSLHLNGGSNPSESFPLSLNKELKQEPVEDLPCMITGTVGSISQSNLMPDLNLNEQEWKELIEELNRSVPDEDMKDLFNEDFEEKKDPESSGSATQTPLAQDINIKTEFSPAAFEQEQLGSPQVRAGSAGQTFLGPSSAPVSTDSPSLGGSQTLFHTSGQPRADNPSPNLMPASAQAQNAQRALAGVVLPSQGPGGASELSSAHQLQQIAAKQKREQMLQNPQQATPAPAPGQMSTWQQTGPSHSSLDVPYPMEKPASPSSYKQDFTNSKLLMMPSVNKSSPRPGGPYLQPSHVNLLSHQPPSNLNQNSANNQGSVLDYGNTKPLSHYKADCGQGSPGSGQSKPALMAYLPQQLSHISHEQNSLFLMKPKPGNMPFRSLVPPGQEQNPSSVPVQAQATSVGTQPPAVSVASSHNSSPYLSSQQQAAVMKQHQLLLDQQKQREQQQKHLQQQQFLQRQQHLLAEQEKQQFQRHLTRPPPQYQDPTQGSFPQQVGQFTGSSAAVPGMNTLGPSNSSCPRVFPQAGNLMPMGPGHASVSSLPTNSGQQDRGVAQFPGSQNMPQSSLYGMASGITQIVAQPPPQATNGHAHIPRQTNVGQNTSVSAAYGQNSLGSSGLSQQHNKGTLNPGLTKPPVPRVSPAMGGQNSSWQHQGMPNLSGQTPGNSNVSPFTAASSFHMQQQAHLKMSSPQFSQAVPNRPMAPMSSAAAVGSLLPPVSAQQRTSAPAPAPPPTAPQQGLPGLSPAGPELGAFSQSPASQMGGRAGLHCTQAYPVRTAGQELPFAYSGQPGGSGLSSVAGHTDLIDSLLKNRTSEEWMSDLDDLLGSQ
notes: Stably expressed in SupT1; also called FLAG-HA tagged MAML1; not shown: Flag and HA tags (pOZ vector)
binds: all assays above
